Source: publication doi:10.1101/605725

Target: GST-Nxf2 first LRR region (1-285) (UniProt Q9VV73 1-285)
Test: EMSA

Sequence of GST-Nxf2 first LRR region (1-285) (Q9VV73 1-285): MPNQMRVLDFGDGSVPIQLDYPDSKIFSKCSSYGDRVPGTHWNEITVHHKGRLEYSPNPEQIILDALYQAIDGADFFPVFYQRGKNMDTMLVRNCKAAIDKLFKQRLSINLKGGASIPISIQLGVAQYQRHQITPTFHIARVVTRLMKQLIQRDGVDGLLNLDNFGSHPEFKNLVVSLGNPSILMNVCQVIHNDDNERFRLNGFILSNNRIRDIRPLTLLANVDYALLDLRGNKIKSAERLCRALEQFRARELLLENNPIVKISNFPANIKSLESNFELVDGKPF

B1: 16-mer ssRNA (ssRNA)
RNA: AGCACCGUAAAGACGC
- binding result: binds
